Data published in patent US20130323237A1 (Novartis, published 2013).
Positions count from the first letter of the chain named.

B1: MOR04497 Fab (Fab, V domains shown)
VH: QVQLVESGGGLVQPGGSLRLSCAASGFTFSNHALSWVRQAPGKGLEWVSGIQYDGSNTGYADSVKGRFTISRDNSKNTLYLQMNSLRAEDTAVYYCARYYGYSYMDYWGQGTLVTVSS
VL: DIELTQPPSVSVAPGQTARISCSGDNLGSKYVHWYQQKPGQAPVLVIYADNNRPSGIPERFSGSNSGNTATLTISGTQAEDEADYYCQSYDHMLQVFGGGTKLTVLG
notes: carries two C-terminal tags (FLAG and 6xHis)
B2: MOR04494 Fab (Fab, V domains shown)
VH: QVQLVESGGGLVQPGGSLRLSCAASGFTFSSYYMSWVRQAPGKGLEWVSNISYDSSDTYYADSVKGRFTISRDNSKNTLYLQMNSLRAEDTAVYYCARQQYFDHIDIWGQGTLVTVSS
VL: DIELTQPPSVSVAPGQTARISCGGDSLGGKYVYWYQQKPGQAPVLVIYGDSKRPSGIPERFSGSNSGNTATLTISGTQAEDEADYYCQSYTNALSTVFGGGTKLTVLG
notes: as for B1
B3: MOR04496 Fab (Fab, V domains shown)
VH: QVQLVESGGGLVQPGGSLRLSCAASGFTFSSYAISWVRQAPGKGLEWVSSISYSGSSTYYADSVKGRFTISRDNSKNTLYLQMNSLRAEDTAVYYCARMEYWYHLLYMDYWGQGTLVTVSS
VL: DIVLTQSPATLSLSPGERATLSCRASQSIGDNYLAWYQQKPGQAPRLLIYDANNRATGVPARFSGSGSGTDFTLTISSLEPEDFATYYCQQYDDHPLTFGQGTKVEIKR
notes: as for B1
B4: MOR04609 Fab (Fab, V domains shown)
VH: QVQLQQSGPGLVKPSQTLSLTCAISGDSVSSNSAAWGWIRQSPGRGLEWLGRIYYRSKWLNDYAVSVKSRITINPDTSKNQFSLQLNSVTPEDTAVYYCARDGGWYIDVWGQGTLVTVSS
VL: DIELTQPPSVSVAPGQTARISCSGDNLGSYYANWYQQKPGQAPVLVIYEDKRPSGIPERFSGSNSGNTATLTISGTQAEDEADYYCQSFDSYHSDYVFGGGTKLTVLG
notes: as for B1
B5: MOR04493 Fab (Fab, V domains shown)
VH: QVQLVQSGAEVKKPGSSVKVSCKASGGTFSSYAISWVRQAPGQGLEWMGGIIPDFGWANYAQKFQGRVTITADESTSTAYMELSSLRSEDTAVYYCARSGMFYSILFDYWGQGTLVTVSS
VL: DIQMTQSPSSLSASVGDRVTITCRASQDIYNYLNWYQQKPGKAPKLLIYGASSLQSGVPSRFSGSGSGTDFTLTISSLQPEDFAVYYCQQQNDYPLTFGQGTKVEIKR
notes: as for B1
B6: MOR04832 Fab (Fab, V domains shown)
VH: QVQLVQSGAEVKKPGSSVKVSCKASGGTFSSYAISWVRQAPGQGLEWMGNIYPIFGYANYAQKFQGRVTITADESTSTAYMELSSLRSEDTAVYYCARYGQYGQHFSHGGMDVWGQGTLVTVSS
VL: DIQMTQSPSSLSASVGDRVTITCRASQDISISLTWYQQKPGKAPKLLIYGAFSLQSGVPSRFSGSGSGTDFTLTISSLQPEDFATYYCQQYYGTSATFGQGTKVEIKR
notes: as for B1
B7: MOR05019 Fab (Fab, V domains shown)
VH: QVQLVESGGGLVQPGGSLRLSCAASGFTFSNHALSWVRQAPGKGLEWVSVISFDGVKFYADSVKGRFTISRDNSKNTLYLQMNSLRAEDTAVYYCARYYGYSYMDYWGQGTLVTVSS
VL: B1 VL
notes: also called MOR5019
B8: MOR05013 Fab (Fab, V domains shown)
VH: QVQLVESGGGLVQPGGSLRLSCAASGFTFSSYYMSWVRQAPGKGLEWVSGIFFDGETYYADSVKGRFTISRDNSKNTLYLQMNSLRAEDTAVYYCARQQYFDHIDIWGQGTLVTVSS
VL: B2 VL
B9: MOR05011 Fab (Fab, V domains shown)
VH: B8 VH with F53Y, E56S, A60P
VL: B2 VL
B10: MOR05015 Fab (Fab, V domains shown)
VH: B8 VH with I51T, E56S
VL: B2 VL
B11: MOR05012 Fab (Fab, V domains shown)
VH: B8 VH with D54T, A60P
VL: B2 VL
B12: MOR05014 Fab (Fab, V domains shown)
VH: B8 VH with E56T
VL: B2 VL
B13: MOR05010 Fab (Fab, V domains shown)
VH: B8 VH with D61G
VL: B2 VL
B14: MOR05016 Fab (Fab, V domains shown)
VH: B2 VH
VL: DIELTQPPSVSVAPGQTARISCGGDSLGGKYVYWYQQKPGQAPVLVIYGDSKRPSGIPERFSGSNSGNTATLTISGTQAEDEADYYCQSYDLQSLNIVFGGGTKLTVLG
B15: MOR05018 Fab (Fab, V domains shown)
VH: B2 VH
VL: B14 VL with Q93G, I97L
B16: MOR05017 Fab (Fab, V domains shown)
VH: B2 VH
VL: B14 VL with Q93K, I97V
B17: MOR05020 Fab (Fab, V domains shown)
VH: B1 VH
VL: DIELTQPPSVSVAPGQTARISCSGDNLGSKYVHWYQQKPGQAPVLVIYADNNRPSGIPERFSGSNSGNTATLTISGTQAEDEADYYCSSYDSNSIRVFGGGTKLTVLG
B18: MOR05022 Fab (Fab, V domains shown)
VH: B1 VH
VL: B17 VL with D91T, S92T, N93S, S94G
B19: MOR05021 Fab (Fab, V domains shown)
VH: B1 VH
VL: B17 VL with S92L, N93D, S94G, I95V
B20: MOR05008 Fab (Fab, V domains shown)
VH: B5 VH with D54E, W57F, A58T
VL: B5 VL
B21: MOR05009 Fab (Fab, V domains shown)
VH: B5 VH with G50H, I52S, D54E, W57F, A58T
VL: B5 VL
B22: MOR05024 Fab (Fab, V domains shown)
VH: B6 VH
VL: B6 VL with Y91F, Y92W, G93F, T94E, S95P, A96V
B23: MOR05023 Fab (Fab, V domains shown)
VH: B6 VH
VL: B6 VL with Y91F, G93F, T94H, A96P
B24: MOR05027 Fab (Fab, V domains shown)
VH: B6 VH
VL: B6 VL with Y91F, Y92W, G93T, T94E, S95P, A96V
B25: MOR05026 Fab (Fab, V domains shown)
VH: B6 VH
VL: B6 VL with Y91F, Y92W, G93S, T94E, S95P, A96V
B26: MOR05025 Fab (Fab, V domains shown)
VH: B6 VH
VL: B6 VL with Y91F, Y92W, G93F, T94H, S95P, A96V

Target: T1, recombinant human TSLP (R&D Systems) (human, UniProt Q969D9 29-159)
T1 construct: also called hTSLP; human thymic stromal lymphopoietin
Assay: SPR (Biacore), biotinylated recombinant human TSLP on SA-chip, Fab as analyte
Experimental: A respective amount of biotinylated human serum albumin (HSA) was immobilized on the reference flow cell. […] The Fabs were applied in concentration series of 16-500 nM at a flow rate of 20 μl/min. Association phase was set to 60 s and dissociation phase to 120 s.

Row | binding result | Binder
1 | binds | B1
2 | binds | B2
3 | binds | B3
4 | binds | B4
5 | binds | B5
6 | binds | B6

Target: T1, recombinant human TSLP (R&D Systems)
Assay: BioVeris electrochemiluminescence screening, Fab in E. coli lysate on biotinylated TSLP coupled to streptavidin beads
Experimental: BEL extracts were diluted in assay buffer (PBS/0.05% Tween20/0.5% BSA) for use in BioVeris screening.

Row | binding result | Binder
7 | binds | B7
8 | binds | B8
9 | binds | B9
10 | binds | B10
11 | binds | B11
12 | binds | B12
13 | binds | B13
14 | binds | B14
15 | binds | B15
16 | binds | B16
17 | binds | B17
18 | binds | B18
19 | binds | B19
20 | binds | B20
21 | binds | B21
22 | binds | B22
23 | binds | B23
24 | binds | B24
25 | binds | B25
26 | binds | B26
